The source of these data is patent US20210221911A1 (NATIONAL CANCER CENTER JAPAN, published 2021).

The target in assay [1] is T1, recombinant human tissue factor (rhTF), residues 33 to 251 of hTF with C-terminal His6 tag (human, UniProt P13726 33-251).
T1 construct: range 33-251; also called rhTF antigen
The assay can be described thus: SPR, Biacore T200, rhTF on CM5 chip, single-cycle kinetics, bivalent analyte model. As for the experimental part:
(§1) SPR measurement was performed by using BiaCore T200 (GE Healthcare). The recombinant human tissue factor antigen (rhTF antigen) was subjected to buffer exchange to 10 mM sodium acetate solution (pH 5.0) and the final protein concentration was adjusted to 2 to 10 μg/mL. Subsequently, contact time was set to 30 seconds and the antigen was immobilized on a CM5 sensor chip (GE Healthcare) according to a basic protocol by using amine coupling. Then, 5 dilution series of the antibody solution were prepared by diluting each ADC solution in DPBS so that the final concentrations thereof became 320 nM, 160 nM, 80 nM, 40 nM, and 20 nM.
In general terms: Surface plasmon resonance follows binding to a sensor surface in real time, without labels.

Assay [2] addresses T1, recombinant human tissue factor (rhTF), …. The assay can be described thus: SPR, ratio of koff values, reference 1849ADC. The procedure: as §1
In assay [3] the target is T2, human tissue factor on cells expressing it strongly such as MCF7 cells (human, UniProt P13726 33-295).
T2 construct: whole, on cells; also called TF
As to the kind of experiment: flow cytometry screen of hybridomas on cells expressing TF. An excerpt: (§2) Recombinant human tissue factor micellized using FCA adjuvant (rhTF, SEQ ID NO: 13) was intraperitoneally administered to Wister rats. After several immunizations, rat antisera were examined by ELISA using a solid phase having rhTFs thereon. A spleen was excised from a rat individual that had shown an increased antibody titer and splenocytes were obtained therefrom. The splenocytes and p3X63 mouse myeloma cells were fused by a PEG technique and cultivated in a HAT culture medium to select hybridoma cells. The hybridoma cells were screened to select those that reacted positively to rhTFs in ELISA and also reacted positively to cells expressing human tissue factor strongly such as an MCF7 cell in flow cytometry analysis. The selected hybridoma cells were cloned by limiting dilution to establish hybridoma cell clones that produced anti-tissue factor antibodies.
(In general: Flow cytometry measures light scatter and fluorescence of single cells or particles in a stream.)

Assay [4] addresses recombinant human tissue factor (rhTF, SEQ ID NO: 13) (human, UniProt P13726 33-251). The assay can be described thus: ELISA screen of hybridomas on solid-phase rhTF.
Excerpt: as §2
On the technique in general: In an ELISA, binding on a coated surface is turned into a signal by an enzyme label.

B1: 1084ADC (ADC composed of the monoclonal antibody produced by clone No. 1084 and monomethyl auristatin E) (antibody, V domains shown)
VH: QVQLKESGPGLVQPSQTLSLTCIVSGFSLTNYNVHWVRQPAGAGLEWMGVIWTDGKTDYNSTLQSRLSISRDTSKSQVFLKMNSLQAEDIATYYCARDWDTGFDYWGQGVMVTVSS
VL: DIKMTQSPSSLSASLGERVTISCRASENINNILAWYQKKEDGSVKLLIHYTSNLQSGVPSRFSGSGSGKDYSLTISGLESEDIATYYCQQAYTPYAFGAGTKLELK
modifications: MMAE joined through a maleimide-PEG12-Val-Cit-PABA linker to sulfhydryl groups of the reduced antibody; sites and number not stated
notes: Whole rat monoclonal antibody from a rat-mouse hybridoma, conjugated to MMAE
For B1, in assay [1], the Kd was 35 nM, the koff came out at 0.000825 s⁻¹ and the kon is 26100 M⁻¹ s⁻¹. In addition, the “koff relative to 1849ADC” value in assay [2] was found to be 39.3 times.

B2: monoclonal antibody produced by clone No. 1084 (antibody, V domains shown)
VH: B1 VH
VL: B1 VL
As to B2, the binding result in assay [3] and in assay [4] was “binds” throughout.

The koff is a measure of how fast the partners let go of each other. The term kon denotes the rate constant with which the complex forms.
